Patent US20120316071A1 (published 2012)
One block for each binder: values may come before it.

Columns and labels:
[1] = target: T1, rHuman Erythropoietin R/Fc Chimera, CF (R&D Systems Cat#963-ER) (human, UniProt P19235 25-250); assay: Multispot ECL (MSD), antigen spotted on plate, Fab 210 nM; blank spot 833
T1 construct: Bought recombinant protein; also called EPO R/Fc; Epo R; Fc part of the bought chimera not given
T1 sequence (looked up): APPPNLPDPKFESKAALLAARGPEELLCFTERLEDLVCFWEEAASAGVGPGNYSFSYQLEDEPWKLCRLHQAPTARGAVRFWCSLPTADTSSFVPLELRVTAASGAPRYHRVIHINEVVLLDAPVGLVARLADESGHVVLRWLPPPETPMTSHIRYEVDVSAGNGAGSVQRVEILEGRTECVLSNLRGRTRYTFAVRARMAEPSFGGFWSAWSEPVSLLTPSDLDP

[2] = target: T2, rHuman ErbB2/Fc Chimera, CF (R&D Systems Cat#1129-ER) (human, UniProt P04626 23-652); assay: as above
T2 construct: Bought recombinant protein; also called human epidermal growth factor 2 receptor; Fc part of the bought chimera not given

[3] = target: T3, rHuman EGF R/Fc Chimera, CF (R&D Systems Cat#344-ER) (human, UniProt P00533 25-645); assay: as above
T3 construct: Bought recombinant protein; also called epidermal growth factor receptor; Fc part of the bought chimera not given

[4] = target: T4, rHuman HGF R/c-MET/Fc Chimera, CF (R&D Systems Cat#358-MT/CF) (human, UniProt P08581 25-932); assay: as above
T4 construct: Bought recombinant protein; also called HGF R/Fc; hepatocyte growth factor receptor; Fc part of the bought chimera not given

[5] = target: T5, rHuman CD44/Fc Chimera, CF (R&D Systems Cat#3660-CD) (human, UniProt P16070 21-220); assay: as above
T5 construct: Bought recombinant protein; Fc part of the bought chimera not given

[6] = target: T1, rHuman Erythropoietin R/Fc Chimera, CF …; assay: Multispot ECL (MSD), antigen spotted on plate, Fab 3.3 nM; blank spot 359
[7] = target: T2, rHuman ErbB2/Fc Chimera, CF (R&D …); assay: as above
[8] = target: T3, rHuman EGF R/Fc Chimera, CF (R&D …); assay: as above
[9] = target: T4, rHuman HGF R/c-MET/Fc Chimera, CF (R&D …); assay: as above
[10] = target: T5, rHuman CD44/Fc Chimera, CF (R&D Systems …); assay: as above
[11] = target: T1, rHuman Erythropoietin R/Fc Chimera, CF …; assay: Multispot ECL (MSD), antigen spotted on plate, Fab 13.1 nM; blank spot 376
[12] = target: T2, rHuman ErbB2/Fc Chimera, CF (R&D …); assay: as above
[13] = target: T3, rHuman EGF R/Fc Chimera, CF (R&D …); assay: as above
[14] = target: T4, rHuman HGF R/c-MET/Fc Chimera, CF (R&D …); assay: as above
[15] = target: T5, rHuman CD44/Fc Chimera, CF (R&D Systems …); assay: as above
[16] = target: T1, rHuman Erythropoietin R/Fc Chimera, CF …; assay: Multispot ECL (MSD), antigen spotted on plate, Fab 52.5 nM; blank spot 467
[17] = target: T2, rHuman ErbB2/Fc Chimera, CF (R&D …); assay: as above
[18] = target: T3, rHuman EGF R/Fc Chimera, CF (R&D …); assay: as above
[19] = target: T4, rHuman HGF R/c-MET/Fc Chimera, CF (R&D …); assay: as above
[20] = target: T5, rHuman CD44/Fc Chimera, CF (R&D Systems …); assay: as above
[21] = target: T6, rHuman Erythropoietin R/Fc Chimera, CF (R&D Systems Cat#963-ER) (human, UniProt P19235 25-250); assay: ECL multispot (MSD) assay, antigen spotted on plate, Fab at 0.1 µM
T6 construct: Bought recombinant protein; also called EPO R; EPO R/Fc; Fc part of the bought chimera not given
T6 sequence (looked up): T1 sequence (looked up)

[22] = target: T7, Recombinant Human DLL4 (R&D Systems Cat#1506-D4/CF) (human, UniProt Q9NR61 27-524); assay: as above
T7 construct: Bought recombinant protein; also called delta-like protein 4; rHuman DLL4

[23] = target: T8, rHuman ErbB2/Fc Chimera, CF (R&D Systems Cat#1129-ER) (human, UniProt P04626 23-652); assay: as above
T8 construct: Bought recombinant protein; also called human epidermal growth factor 2 receptor; Fc part of the bought chimera not given

[24] = target: T9, rHuman EGF R/Fc Chimera, CF (R&D Systems Cat#344-ER) (human, UniProt P00533 25-645); assay: as above
T9 construct: Bought recombinant protein; also called epidermal growth factor receptor; Fc part of the bought chimera not given

[25] = target: T10, rHuman HGF R/c-MET/Fc Chimera, CF (R&D Systems Cat#358-MT/CF) (human, UniProt P08581 25-932); assay: as above
T10 construct: Bought recombinant protein; also called HGF R/Fc; hepatocyte growth factor receptor; Fc part of the bought chimera not given

[26] = target: T11, rHuman Notch-1/Fc Chimera, CF (R&D Systems Cat#3647-TK) (human, UniProt P46531 19-526); assay: as above
T11 construct: Bought recombinant protein; Fc part of the bought chimera not given

[27] = target: T12, rHuman CD44/Fc Chimera, CF (R&D Systems Cat#3660-CD) (human, UniProt P16070 21-220); assay: as above
T12 construct: Bought recombinant protein; Fc part of the bought chimera not given

[28] = target: T13, rHuman IGF-1 sR, CF (R&D Systems Cat#391-GR) (human, UniProt P08069 31-932); assay: as above
T13 construct: Bought recombinant soluble receptor; also called insulin-like growth factor-1 soluble receptor

[29] = target: T14, rHuman P-Cadherin/Fc Chimera, CF (R&D Systems Cat#861-PC) (human, UniProt P22223 108-654); assay: as above
T14 construct: Bought recombinant protein; Fc part of the bought chimera not given

[30] = target: T6, rHuman Erythropoietin R/Fc Chimera, CF …; assay: ECL multispot (MSD) assay, antigen spotted on plate, Fab at 0.01 µM
[31] = target: T7, Recombinant Human DLL4 (R&D Systems …); assay: as above
[32] = target: T8, rHuman ErbB2/Fc Chimera, CF (R&D …); assay: as above
[33] = target: T9, rHuman EGF R/Fc Chimera, CF (R&D …); assay: as above
[34] = target: T10, rHuman HGF R/c-MET/Fc Chimera, CF (R&D …); assay: as above
[35] = target: T11, rHuman Notch-1/Fc Chimera, CF (R&D …); assay: as above
[36] = target: T12, rHuman CD44/Fc Chimera, CF (R&D Systems …); assay: as above
[37] = target: T13, rHuman IGF-1 sR, CF (R&D Systems …); assay: as above
[38] = target: T14, rHuman P-Cadherin/Fc Chimera, CF (R&D …); assay: as above

- ECL signal at 210 nM Fab [1]: 2120
- ECL signal at 210 nM Fab [2]: 1980
- ECL signal at 210 nM Fab [3]: 1620
- ECL signal at 210 nM Fab [4]: 2060
- ECL signal at 210 nM Fab [5]: 1400
- ECL signal at 3.3 nM Fab [6]: 695
- ECL signal at 3.3 nM Fab [7]: 1030
- ECL signal at 3.3 nM Fab [8]: 847
- ECL signal at 3.3 nM Fab [9]: 849
- ECL signal at 3.3 nM Fab [10]: 621
- ECL signal at 13.1 nM Fab [11]: 776
- ECL signal at 13.1 nM Fab [12]: 930
- ECL signal at 13.1 nM Fab [13]: 824
- ECL signal at 13.1 nM Fab [14]: 981
- ECL signal at 13.1 nM Fab [15]: 708
- ECL signal at 52.5 nM Fab [16]: 1320
- ECL signal at 52.5 nM Fab [17]: 1510
- ECL signal at 52.5 nM Fab [18]: 1110
- ECL signal at 52.5 nM Fab [19]: 1290
- ECL signal at 52.5 nM Fab [20]: 897
B1: Fab VH4-31_IGHD2-15*01_IGHJ2*01 & V1-4_IGLJ4*01 (Fab, V domains shown)
VH: QVQLQESGPGLVKPSQTLSLTCTVSGGSISSGGYYWSWIRQHPGKGLEWIGYIYYSGSTYYNPSLKSRVTISVDTSKNQFSLKLSSVTAADTAVYYCAREGYCSGGSCYSYWYFDLWGRGTLVTVSS
VL: QSALTQPASVSGSPGQSITISCTGTSSDVGGYNYVSWYQQHPGKAPKLMIYEVSNRPSGVSNRFSGSKSGNTASLTISGLQAEDEADYYCSSYTSSSTLFVFGGGTQLIIL
notes: Tested as a Fab made in E. coli; The heavy chain variable region was cloned into Plasmid A (CH1 constant region, His6 and Flag tags); The lambda light chain variable region was cloned into Plasmid E (lambda CL); Only the variable domains are tied to this Fab by name

- ECL signal/noise ratio [21]: 1.3
- ECL signal/noise ratio [22]: 71.6
- ECL signal/noise ratio [23]: 0.8
- ECL signal/noise ratio [24]: 0.9
- ECL signal/noise ratio [25]: 0.5
- ECL signal/noise ratio [26]: 1.4
- ECL signal/noise ratio [27]: 1.3
- ECL signal/noise ratio [28]: 1.3
- ECL signal/noise ratio [29]: 1
- ECL signal/noise ratio [30]: 0.8
- ECL signal/noise ratio [31]: 10
- ECL signal/noise ratio [32]: 1
- ECL signal/noise ratio [33]: 0.8
- ECL signal/noise ratio [34]: 0.5
- ECL signal/noise ratio [35]: 0.6
- ECL signal/noise ratio [36]: 0.9
- ECL signal/noise ratio [37]: 0.5
- ECL signal/noise ratio [38]: 0.2
B2: Fab VH1-46_IGHD6-6*01_IGHJ1*01 S102A & L6_IGKJ1*01 (Fab, V domains shown)
VH: QVQLVQSGAEVKKPGASVKVSCKASGYTFTSYYMHWVRQAPGQGLEWMGIINPSGGSTSYAQKFQGRVTMTRDTSTSTVYMELSSLRSEDTAVYYCAREEYASSSAEYFQHWGQGTLVTVSS
VL: not shown
notes: Tested as a Fab expressed in E. coli (Plasmid A: CH1, His6 and Flag tags; Plasmid C: kappa CL)
